Tests used:
[1] = molecular target: T1, B/Brisbane/60/2008 (IBV) HA (influenza B virus B/Brisbane/60/2008 …, UniProt P22092 16-559); experiment: mPLEX-Flu multiplex bead assay, PE anti-human IgG, MFI heat map
B/Massachusetts/2/2012 = molecular target: T2, B/Massachusetts/2/2012; experiment: as above
T2 construct: column under B

A/Texas/50/2012 = experiment: as above
[2] = molecular target: A/South Carolina/01/1918 H1N1 HA (influenza A virus A/South …, UniProt Q9WFX3 18-529); experiment: as above
[3] = molecular target: T1, B/Brisbane/60/2008 (IBV) HA; experiment: cell-based or functional assay
A/Wyoming/3/2003 H3N2 HA = A/Wyoming/3/2003 H3N2 HA (influenza A virus A/Wyoming/3/2003 H3N2); experiment: cell-based or functional assay
[4] = molecular target: A/Puerto Rico/08/1934 H1N1 (PR8 H1N1) HA (influenza A virus A/Puerto Rico/08/1934 …, UniProt P03452 18-528); experiment: cell-based or functional assay

B1: KPF1 human monoclonal antibody (hmAb) (antibody, V domains shown)
VH: EVQLLESGGGLVQPGGSLRISCAASGSTFGDFAMSWVRQSPGRGLEWVSVTSAGGDRTYYADSVKGRFTISRDNSKNTLYLQMNSLRGEDTAMYYCARLDSSGFHYGRPGRNWGQGTLVTVSS
VL: DIQMTHSPPSLSASVGDRITITCQASQDISYYLIWYQQKPGKAPKPLIYDASNLEAGVPSRFSASGSGTDFTLTISSLQPEDLATYYCQQYKSLPYTFGQGTKLEIK
- binding result [1]: no binding (tested: 1 ug/ml)
- binding result (B/Massachusetts/2/2012): no binding (tested: 1 ug/ml)
- binding result (A/Texas/50/2012): no binding (tested: 1 ug/ml)
- binding result [2]: binds
- NT50 (µg/ml), microneutralization, crystal violet [3]: > 200 µg/mL
- NT50 (µg/ml), microneutralization, crystal violet (A/Wyoming/3/2003 H3N2 HA): > 200 µg/mL
- NT50 (µg/ml), microneutralization, crystal violet [4]: 146 µg/mL
